Data on eight molecules can be found in PMC10085699.

Residue numbers refer to the chain shown, from its start. Read-outs that look alike come from different tables or passages of the source.

The target in series [1] is T1, SETX-HD-WT (Homo sapiens, UniProt Q7Z333 1674-2677).
T1 sequence: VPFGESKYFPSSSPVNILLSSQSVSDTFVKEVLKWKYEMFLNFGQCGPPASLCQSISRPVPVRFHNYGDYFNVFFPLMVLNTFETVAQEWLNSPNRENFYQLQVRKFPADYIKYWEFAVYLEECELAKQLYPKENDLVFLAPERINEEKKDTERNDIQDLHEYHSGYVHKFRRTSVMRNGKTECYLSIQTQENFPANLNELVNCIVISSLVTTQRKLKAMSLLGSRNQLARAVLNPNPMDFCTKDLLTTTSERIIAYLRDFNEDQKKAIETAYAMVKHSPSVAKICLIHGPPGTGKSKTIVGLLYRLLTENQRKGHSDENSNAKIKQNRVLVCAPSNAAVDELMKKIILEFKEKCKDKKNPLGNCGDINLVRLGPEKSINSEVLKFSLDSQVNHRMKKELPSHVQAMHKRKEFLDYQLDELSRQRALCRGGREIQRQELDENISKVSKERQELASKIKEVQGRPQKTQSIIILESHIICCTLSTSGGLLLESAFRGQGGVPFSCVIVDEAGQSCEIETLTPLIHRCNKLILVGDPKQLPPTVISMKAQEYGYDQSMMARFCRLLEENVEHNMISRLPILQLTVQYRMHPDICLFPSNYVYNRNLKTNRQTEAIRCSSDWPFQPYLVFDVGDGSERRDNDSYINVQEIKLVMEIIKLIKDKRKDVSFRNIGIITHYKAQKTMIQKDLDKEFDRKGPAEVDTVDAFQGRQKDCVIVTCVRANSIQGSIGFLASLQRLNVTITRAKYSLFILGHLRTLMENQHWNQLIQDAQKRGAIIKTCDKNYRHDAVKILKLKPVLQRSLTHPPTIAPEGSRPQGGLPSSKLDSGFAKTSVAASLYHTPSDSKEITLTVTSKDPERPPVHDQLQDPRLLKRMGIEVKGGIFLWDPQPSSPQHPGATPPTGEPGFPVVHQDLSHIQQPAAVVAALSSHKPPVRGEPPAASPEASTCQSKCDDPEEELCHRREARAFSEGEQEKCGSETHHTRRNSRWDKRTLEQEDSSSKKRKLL
Description: EMSA. A general note: Mobility shift assays separate free from complexed probe on a gel.

The target in series [2] is T1, SETX-HD-WT. The experiment in a line: BLI. (In general: In BLI a coated tip is dipped into the sample, and binding shifts an interference pattern.)
Series [3] has as its target T2, Sen1-HD (UniProt Q00416 1095-1904).
T2 sequence: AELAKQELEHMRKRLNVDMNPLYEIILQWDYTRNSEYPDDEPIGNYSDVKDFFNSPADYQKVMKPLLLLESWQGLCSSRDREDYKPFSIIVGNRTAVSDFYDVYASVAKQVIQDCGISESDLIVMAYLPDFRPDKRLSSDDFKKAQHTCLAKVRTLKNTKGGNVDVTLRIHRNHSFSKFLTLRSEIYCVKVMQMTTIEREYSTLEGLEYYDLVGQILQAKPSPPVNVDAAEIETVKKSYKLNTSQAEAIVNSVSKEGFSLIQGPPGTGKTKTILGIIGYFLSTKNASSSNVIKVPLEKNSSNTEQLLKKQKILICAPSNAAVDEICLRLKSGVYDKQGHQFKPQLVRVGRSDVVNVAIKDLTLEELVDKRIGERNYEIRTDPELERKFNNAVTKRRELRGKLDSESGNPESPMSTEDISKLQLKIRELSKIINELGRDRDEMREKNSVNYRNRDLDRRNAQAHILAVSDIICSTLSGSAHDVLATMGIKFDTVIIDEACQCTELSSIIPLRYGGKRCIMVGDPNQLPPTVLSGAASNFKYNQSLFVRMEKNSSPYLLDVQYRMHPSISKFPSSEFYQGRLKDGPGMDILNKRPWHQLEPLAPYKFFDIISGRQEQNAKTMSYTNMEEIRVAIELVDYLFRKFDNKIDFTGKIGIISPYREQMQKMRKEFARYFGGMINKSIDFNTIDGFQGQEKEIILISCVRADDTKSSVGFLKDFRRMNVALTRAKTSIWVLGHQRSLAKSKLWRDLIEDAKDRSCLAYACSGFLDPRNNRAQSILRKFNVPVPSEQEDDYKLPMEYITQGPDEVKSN
Description: BLI.

The target in the next series is T3, SETX-HD-V1884T (Homo sapiens, UniProt Q7Z333 1674-2677, V1884T).
T3 sequence: T1 sequence with V211T
Description: BLI.

In series [4] the target is T2, Sen1-HD. The experiment in a line: BLI. The source holds these as a separate data set.
Series [5] concerns the target T1, SETX-HD-WT. Description: BLI. This is another data set of the same source.
Series [6] addresses T1, SETX-HD-WT. The experiment in a line: EMSA. This is another data set of the same source.
In series [7] the target is T1, SETX-HD-WT. Description: EMSA. The source holds these as a separate data set.
Series [8] deals with T1, SETX-HD-WT. Description: EMSA. The source holds these as a separate data set.

B1: 5'-oh R-loop (pRMS217/219/222) (mixed)
DNA 1: GACGCTGCCGAATTCTACCAGTGCCTTGCTAGGACATCTTTGCCCACCTGCAGGTTCACCC
DNA 2: GGGTGAACCTGCAGGTGGGCGGCTGCTCATCGTAGGTTAGTTGGTAGAATTCGGCAGCGTC
RNA: UAAGAGCAAGAUGUUCUAUAAAAGAUGUCCUAGCAAGGCAC
Take B1: the binding result in the series with SETX-HD-WT [1] is reported as “binds”.

B2: 3'-oh R-loop (pRMS217/219/626) (mixed)
DNA 1: B1 DNA 1
DNA 2: B1 DNA 2
RNA: AAAGAUGUCCUAGCAAGGCACUAAGUCCUAGAUGUUCUAUA
In the case of B2, the binding result with SETX-HD-WT [1] was “binds”.

B3: R-loop, no overhang (pRMS217/219/223) (mixed)
DNA 1: B1 DNA 1
DNA 2: B1 DNA 2
RNA: AAAGAUGUCCUAGCAAGGCAC
As for B3, in the series with SETX-HD-WT [1], the binding result is “binds”.

The term Kd denotes a measure of binding affinity in units of concentration. Regarding TTGTCTTCTCATAAATTTAATCCCCGTACGCTTATACTCCT (ssDNA) [ssDNA pRMS739 (41 nt)], the figures for the Kd in the series with SETX-HD-WT [2] and with Sen1-HD [3] were 2.8 nM and 3.4 nM, respectively.

As to UUGUCUUCUCAUAAAUUUAAUCCCCGUACGCUUAUACUCCU (ssRNA) [ssRNA pRMS740 (41 nt)], in the series with SETX-HD-V1884T, the binding result is “binds”. Also, the Kd in the series with Sen1-HD [4] was found to be 3.7 nM; in the series with SETX-HD-WT [5] it was 4.6 nM.

B4: 5'-oh RNA:DNA hybrid (pRMS678/pRMS690) (DNA:RNA)
RNA: UUGUCUUCUCAUAAAUUUAAUCCCCGUACGCUUAUACUCCUUUAACUACCCAGUCUUCCCG
DNA: CGGGAAGACTGGGTAGTTAA
Consider B4, for which, in the series with SETX-HD-WT [6], the binding result was “binds”.

B5: blunt RNA:DNA hybrid (pRMS678/pRMS743) (DNA:RNA)
RNA: B4 RNA
DNA: CGGGAAGACTGGGTAGTTAAAGGAGTATAAGCGTACGGGGATTAAATTTATGAGAAGACAA
Regarding B5, the binding result with SETX-HD-WT [7] is “no binding”.

B6: 3'-oh RNA:DNA hybrid (pRMS678/pRMS689) (DNA:RNA)
RNA: B4 RNA
DNA: TTAAATTTATGAGAAGACAA
For the molecule B6, the binding result with SETX-HD-WT [8] is given as “binds”.
